# Key:
# [1] = UV absorption spectra of insulin in different solutions; format: physicochemical; conditions: Table 1, UV absorption at 275 nm; insulin 100 μg/mL, casein 200 μg/mL, HP-β-CD 1 mg/mL (Figure 6A)
# Protocol: Absorption spectra were recorded on a Shimadzu UV-2450 spectrophotometer. The absorption spectra were carried out according to Kano et al..
# trypsin = assay: Degradation of insulin induced by trypsin (remaining insulin by HPLC and PAGE); format: in vitro ADME
# Protocol: (§1) HPLC was carried out according to Todo et al. with minor modifications. Analyses of remaining insulin were carried out by reserve phase HPLC with an isocratic system (Shimadzu Co., Kyoto) using the raw insulin bulk drug as the standard (28 IU/mg). The HPLC system was composed of a pump (LC-10ADvp), diode array detector (SPD-M10Avp), column oven (CTO-10ASvp), and LC workstation (CLASS-LC10). The mobile phase was a 72:28 mixture of 0.2 mol/L sodium sulphate buffer (pH 3.0) and acetonitrile at a flow rate of 1.0 mL/min. The column was a Shodex Asahipak ODP-50 6D (4.6mm × 150 mm, 5 um) (Showa Denko, Ltd., Tokyo) heated at room temperature. Ultraviolet absorption was measured at 214 nm.
# (§2) PAGE was carried out according to Laemmli with minor modifications. The running gel, stacking gel and electrode buffer are without sodium dodecyl sulfate (SDS). The running gel and stacking gel contained 15% and 4.5% acrylamide, respectively. After electrophoresis, the gels were subjected to stain with Coomassie Brilliant R-250.
# (§3) Insulin was dissolved in a few drops of 0.05 mol/L HCL, then 0.05 mol/L PBS (phosphate buffer, pH=7.0) was added. α-Chymotrypsin (5 mg/mL) and trypsin (12 mg/mL) solutions were prepared with Tris-HCL buffer (pH=8.0), respectively. Casein (5 g) was dissolved in 0.1 mol/L NaOH (10 mL), then was diluted to 100 mL with PBS (pH=7.0), The pH of final concentration was again measured and adjusted to pH 7.0. 5% Protamine solution was prepared with PBS (pH=7.0). Insulin solution and enzyme solutions were incubated at 37 °C for 15 min. Different treatments were administered. The final concentration of insulin in the solution was 0.5 mg/mL. The final mass ratios in the solution were as following, insulin:HP-β-CD = 1 :30; insulin:casein = 1:10; insulin:protamine = 1:10; insulin:casein or protamine:HP-β-CD = 1:10:30. Before the addition of a-chymotrypsin solution, insulin solution was vortexed at high speed for 5 s and a sample was withdrawn and added with ice-cold 0.5% TFA acid as the zero time sample. Samples were withdrawn for 15, 30, 45 and 60 min after the addition of the enzyme solution at 37 °C. The final enzyme concentrations of α-chymotrypsin and trypsin were 8 mg/L [29] and 600 mg/L [21], respectively. Then the samples were analyzed by PAGE and HPLC after adding 50 μl of ice-cold 0.5% TFA acid to terminate the reaction. Every experiment was carried out three times. The average and the standard deviation of the data were calculated.
# α-chymotrypsin = assay: Degradation of insulin induced by α-chymotrypsin (remaining insulin by HPLC and PAGE); format: in vitro ADME
# Protocol: as §1, §2, §3
Substance,ΔA275 [1],"degradation of insulin by trypsin, treated with HP-β-CD (trypsin; insulin 0.5 mg/mL, insulin:HP-β-CD = 1:30 (mass), trypsin 600 mg/L, PBS pH 7.0, 37 °C, 0-60 min, n=3, P>0.05 vs insulin alone)","degradation of insulin by trypsin in the presence of protamine (trypsin; insulin 0.5 mg/mL, insulin:protamine = 1:10 (mass), trypsin 600 mg/L, PBS pH 7.0, 37 °C, 0-60 min, n=3, P<0.05 vs insulin alone)","insulin detected (remaining) against trypsin, co-incubated with HP-β-CD and protamine (trypsin; insulin 0.5 mg/mL, insulin:protamine:HP-β-CD = 1:10:30 (mass), trypsin 600 mg/L, PBS pH 7.0, 37 °C, at 60 min, HPLC UV 214 nm, mean of n=3, P<0.01 vs insulin alone)","insulin remained against trypsin (trypsin; insulin alone 0.5 mg/mL, trypsin 600 mg/L, PBS pH 7.0, 37 °C, after 60 min, 15 min pre-incubation, HPLC UV 214 nm, mean of n=3)","remaining insulin against trypsin in the solution containing casein and protamine (trypsin; insulin with casein and protamine, trypsin, 37 °C, data not shown)","insulin detected (remaining) against α-chymotrypsin, treated with HP-β-CD (α-chymotrypsin; insulin 0.5 mg/mL, insulin:HP-β-CD = 1:30 (mass), α-chymotrypsin 8 mg/L, PBS pH 7.0, 37 °C, sampling 0-60 min, HPLC UV 214 nm, mean of n=3, P>0.05 vs insulin alone)","insulin remained undegraded against α-chymotrypsin, treated with casein (α-chymotrypsin; insulin 0.5 mg/mL, insulin:casein = 1:10 (mass), α-chymotrypsin 8 mg/L, PBS pH 7.0, 37 °C, sampling 0-60 min, HPLC UV 214 nm, mean of n=3, P<0.01 vs insulin alone)","insulin remained undegraded against α-chymotrypsin, co-incubated with HP-β-CD and casein (α-chymotrypsin; insulin 0.5 mg/mL, insulin:casein:HP-β-CD = 1:10:30 (mass), α-chymotrypsin 8 mg/L, PBS pH 7.0, 37 °C, sampling 0-60 min, HPLC UV 214 nm, mean of n=3, P<0.001 vs insulin alone)","remaining insulin against α-chymotrypsin (α-chymotrypsin; insulin alone 0.5 mg/mL, α-chymotrypsin 8 mg/L, PBS pH 7.0, 37 °C, after 60 min, 15 min pre-incubation, HPLC UV 214 nm and PAGE, n=3)","remained insulin against α-chymotrypsin in the solution containing casein and protamine (α-chymotrypsin; insulin with casein and protamine, α-chymotrypsin, 37 °C, data not shown)"
Casein,0.219,,,,,,,,,,
Insulin,0.098,partly inhibited,significantly decreased,about 70%,about 15%,almost equal to that in the solution containing protamine,About 25%,about 45%,About 80%,most of insulin was degraded,almost equal to that in the solution containing casein

# From PMC2635643, “Improving the Stability of Insulin in Solutions Containing Intestinal Proteases in Vitro” (International Journal of Molecular Sciences, 2008)
